Reference: patent publication US20240174744A1 (SCIRHOM, published 2024)

T1: miR2-FL-WT-T7 (mouse iRhom2 full length wild type C-terminally tagged with 3 consecutive copies of the T7 … (mouse, UniProt Q80WQ6 1-827))
T1 construct: also called mouse iRhom2 variant expressed by MEF-DKO-miR2-FL-WT-T7 cells
T1 sequence: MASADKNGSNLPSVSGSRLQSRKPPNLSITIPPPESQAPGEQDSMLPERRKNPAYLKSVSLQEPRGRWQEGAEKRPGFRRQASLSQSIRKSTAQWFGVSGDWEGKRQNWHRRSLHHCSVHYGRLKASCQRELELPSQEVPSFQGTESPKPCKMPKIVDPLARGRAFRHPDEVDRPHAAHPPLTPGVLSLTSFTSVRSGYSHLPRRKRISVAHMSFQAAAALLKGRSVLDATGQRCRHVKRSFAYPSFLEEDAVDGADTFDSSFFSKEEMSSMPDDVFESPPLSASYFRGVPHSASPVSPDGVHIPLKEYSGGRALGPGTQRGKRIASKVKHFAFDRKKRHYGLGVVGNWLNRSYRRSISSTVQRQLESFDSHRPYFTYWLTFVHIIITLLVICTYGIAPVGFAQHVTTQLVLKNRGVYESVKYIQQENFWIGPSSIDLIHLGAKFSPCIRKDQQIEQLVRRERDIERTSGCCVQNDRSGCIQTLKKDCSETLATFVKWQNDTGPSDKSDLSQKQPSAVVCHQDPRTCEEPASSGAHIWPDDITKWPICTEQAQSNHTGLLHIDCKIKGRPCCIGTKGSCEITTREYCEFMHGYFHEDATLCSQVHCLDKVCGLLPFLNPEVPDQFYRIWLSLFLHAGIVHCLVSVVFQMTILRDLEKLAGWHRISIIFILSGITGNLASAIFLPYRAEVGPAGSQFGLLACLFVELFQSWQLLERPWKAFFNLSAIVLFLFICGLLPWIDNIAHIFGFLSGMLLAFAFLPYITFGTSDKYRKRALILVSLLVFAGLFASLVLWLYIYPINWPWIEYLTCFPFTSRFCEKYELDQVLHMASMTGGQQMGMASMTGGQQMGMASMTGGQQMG

T2: hiR2-FL-L539A-T7 (human iRhom2 full length L539A, 3 x T7 tag) (human, UniProt Q6PJF5 1-856)
T2 sequence: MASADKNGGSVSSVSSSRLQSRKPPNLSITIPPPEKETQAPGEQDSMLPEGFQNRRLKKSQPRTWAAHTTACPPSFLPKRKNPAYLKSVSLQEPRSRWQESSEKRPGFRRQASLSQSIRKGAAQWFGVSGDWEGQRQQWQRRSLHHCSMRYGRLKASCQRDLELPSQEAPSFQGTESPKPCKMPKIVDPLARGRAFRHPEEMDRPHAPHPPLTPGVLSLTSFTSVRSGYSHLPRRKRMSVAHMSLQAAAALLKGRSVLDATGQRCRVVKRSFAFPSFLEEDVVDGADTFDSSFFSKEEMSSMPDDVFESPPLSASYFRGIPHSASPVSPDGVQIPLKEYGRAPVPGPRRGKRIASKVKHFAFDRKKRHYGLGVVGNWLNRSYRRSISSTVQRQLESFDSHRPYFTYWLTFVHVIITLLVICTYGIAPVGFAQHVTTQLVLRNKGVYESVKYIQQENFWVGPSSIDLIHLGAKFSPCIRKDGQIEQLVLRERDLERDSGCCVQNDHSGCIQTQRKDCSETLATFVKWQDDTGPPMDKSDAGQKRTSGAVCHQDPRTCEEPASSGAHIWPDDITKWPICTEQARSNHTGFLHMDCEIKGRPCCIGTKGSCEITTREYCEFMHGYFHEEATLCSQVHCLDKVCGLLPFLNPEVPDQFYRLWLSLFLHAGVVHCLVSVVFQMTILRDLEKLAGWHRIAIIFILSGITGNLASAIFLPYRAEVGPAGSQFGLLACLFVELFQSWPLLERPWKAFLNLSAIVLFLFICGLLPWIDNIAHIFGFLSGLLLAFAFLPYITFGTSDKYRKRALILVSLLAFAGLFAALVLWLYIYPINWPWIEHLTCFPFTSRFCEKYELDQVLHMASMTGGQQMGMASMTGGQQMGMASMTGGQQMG


What was measured:
[1] = target: T1, miR2-FL-WT-T7 (mouse iRhom2 full length …); test: FACS on cells of the row mouse iR2 wild type, vs human iR2 wild type = 100%
Source text: In brief, immortalized MEF-DKO-hiR2-FL-WT-T7 cells, MEF-DKO-miR2-FL-WT-T7 cells and MEF-DKO-hiR2-FL-R441K-T7, MEF-DKO-hiR2-FL-K443R-T7, MEF-DKO-hiR2-FL-V459I-T7, MEF-DKO-hiR2-FL-G481Q-T7, MEF-DKO-hiR2-FL-L488R-T7, MEF-DKO-hiR2-FL-L493I-T7, MEF-DKO-hiR2-FL-D496T-T7, MEF-DKO-hiR2-FL-H505R-T7, MEF-DKO-hiR2-FL-Q512L-T7, MEF-DKO-hiR2-FL-R513K-T7, MEF-DKO-hiR2-FL-D528N-T7, MEF-DKO-hiR2-FL-P533-T7, MEF-DKO-hiR2-FL-M534S-T7, MEF-DKO-hiR2-FL-G540S-T7, MEF-DKO-hiR2-FL-R543Q-T7, MEF-DKO-hiR2-FL-T544P-T7, MEF-DKO-hiR2-FL-G546A-T7, MEF-DKO-hiR2-FL-A547V-T7, MEF-DKO-hiR2-FL-R582Q-T7, MEF-DKO-hiR2-FL-F588L-T7, MEF-DKO-hiR2-FL-M591I-T7, MEF-DKO-hiR2-FL-E594K-T7, MEF-DKO-hiR2-FL-E626D-T7, MEF-DKO-hiR2-FL-L657I-T7, and MEF-DKO-hiR2-FL-H835Y-T7 cells were harvested with 10 mM EDTA in PBS, washed and resuspended in FACS buffer (PBS, 3% FBS, 0.05% sodium azide), and seeded in Nunc U-bottom 96-well plates (Thermo Fisher Scientific, USA) at approximately 3×10⁵ cells per well. To pellet cells and remove supernatants, the plates were centrifuged at 1,500 rpm and 4° C. for 3 minutes. For primary staining, cells were resuspended in 100 μl per well of either FACS buffer alone (controls) or the purified antibodies 3, 5, 16, 22, 34, 42, 43, 44, 48, and 50 of the present disclosure at 3 μg/ml FACS buffer and incubated on ice for 1 hour. Afterwards, plates were centrifuged at 1,500 rpm and 4° C. for 3 minutes and washed twice with 200 μl per well of FACS buffer. For secondary staining, cells were spun down and resuspended in 100 μl per well of PE-conjugated goat anti-mouse IgG F(ab′)2 detection fragment (Dianova, Germany) diluted 1:100 in FACS buffer. Protected from light, the cell suspensions were incubated on ice for 1 hour. Plates were then centrifuged at 1,500 rpm and 4° C. for 3 minutes and washed three times with 200 μl per well of FACS buffer. Finally, cells were resuspended in 150 μl per well of FACS buffer and analyzed using a BD Accuri™ C6 Plus flow cytometer (Becton Dickinson, Germany).

[2] = target: T2, hiR2-FL-L539A-T7 (human iRhom2 full …); test: FACS on cells of the row L539A

Binder	grade of loss of binding vs wild type [1]	binding result [2]
antibody 43 (antibody, V domains shown, Mouse IgG, kappa light chain; also called clone #43) VH: QVALKESGPGILQPSQTLSLTCSFSGFSLSTFGMGVGWIRQSSGKGLEWLANIWWDDDKYYNPALKSRLTISKDASKNQAFLKIANVDTADTATYYCARIGNYGSNYWYFDVWGTGTTVTVSS VL: QIVLTQSPAIMSASPGERVTMTCSANSRISYMYWYQQKPGSSPRLLIYDTSNLASGVPVRFSGSGSGTSYSLTISRMEAEDAATYNCQQWSSYPLTFGAGTKLELK	3 grade (3 => 95% loss of binding vs wild type)	no binding (tested: 3 µg/ml)
antibody 44 (antibody, V domains shown, Mouse IgG, kappa light chain; also called clone #44; m44) VH: QVTLKESGPGILQPSQTLSLTCSFSGFSLSTFGMGVGWIRQPSEKGLEWLAHIWWDDDKYYNPALKSRLTISKDTSKNQIFLKITNVDTAETATYYCSRIGNYGSNYWYFDVWGTGTTVTVSS VL: QIVLTQSPAVMSASPGEKVTMTCTASSSVYYMYWYQQTPGSSPRLLIYDTSNLASGVPVRFSGSGSGTSYSLTISRMEAEDAATYYCQQWNTYPLTFGAGTKLELK	3 grade (3 => 95% loss of binding vs wild type)	no binding (tested: 3 µg/ml)
antibody 16 (antibody, V domains shown, Mouse IgG, kappa light chain; also called clone #16; m16) VH: QVTLKESGPGILQPSQTLSLTCSFSGFSLSTFALGVGWIRQPSGRGLEWLAHIWWDDDKYYNPALKSRLTISKDTSKNHVFLKIANVDTADTATYYCARITTYYYGMDYWGQGTSVTVSS VL: DIVLSQSPATLSVTPGDSVSLFCRASQSIGNHLHWYQQESHASPRLLIKYASQSISGIPSRFSGSGSGTDFTLSINSVETEDFGMYFCQQSYNWPLTFGAGTKLELK	3 grade (3 => 95% loss of binding vs wild type)	
antibody 5 (antibody, V domains shown, Mouse IgG, kappa light chain; also called clone #5; purified antibody 5) VH: QVTLKESGPGILQPSQTLSLTCSFSGFSLSTFGMGVGWIRQPSGKGLEWLAHIWWDDEKYYNSALKSRLTISKATSKNQAFLKIANVDTADTATYYCARISNYGSNYWYFNVWGTGTTVTVSS VL: QVVLTQSPALMSASPGEKVTMTCSAGSSVSCMYWYQQKPGSSPRVLIYDTSNLASGVPARFTGSGSGTSYSLTISRMEAEDAASYYCQQWNSYPLTFGAGTKLELK	3 grade (3 => 95% loss of binding vs wild type)	no binding (tested: 3 µg/ml)
antibody 22 (antibody, V domains shown, Mouse IgG, kappa light chain; also called clone #22; m22) VH: QVTLKESGPGILQPSQTLSLTCSFSGFSLSTFGMGVGWIRQPSGKGLEWLAHIWWDDEKYYNSALKSRLTISKATSKNQVFLKIANVDTADTATYYCARISNYGSNYWYFNVWGTGTTVTVSS VL: QVVLTQSPALMSASPGEKVTMTCSAGSSVSYMYWYQQKPGSSPRVLIYDTSNLASGVPARFTGSGSGTSYSLTISRMEAEDAATYYCQQWNSYPLTFGAGTKLELK	3 grade (3 => 95% loss of binding vs wild type)	no binding (tested: 3 µg/ml)
antibody 42 (antibody, V domains shown, Mouse IgG, kappa light chain; also called clone #42; m42) VH: QVTLKESGPGILQPSQTLSLTCSLSGFSLSTFGRGVGWIRQPSGKGLEWLAHIWWDDEKYYNPALKSRLTISKDTSKNQVFLRIANVDTADTATYYCARIQNYGSNYWYFDVWGTGTTVTVSS VL: LIVLTQSPAIMSASPGEKVTMTCGATSRISYMFWYQQKPGSSPRVLIYDTSNLASGVPVRFSGSGSGTSYSLTISRVEAEDVATYYCQQWNSYPLTFGAGTKLELK	3 grade (3 => 95% loss of binding vs wild type)	no binding (tested: 3 µg/ml)
antibody 3 (antibody, V domains shown, Mouse IgG, kappa light chain; also called clone #3; purified antibody 3) VH: QVTLKESGPGILQPSQTLSLTCSFSGFSLTTFAMGIGWVRQPSGKGLEWLAHIWWDGEKYNNPVLKSRLTISKDTSKNQVFLRIANVDTPDTATYYCARISSIYYIIDNWGQGTSVTVSS VL: DIVLTQSPATLSVTPGHSVSLSCRASQSISNNLHWYQKKSHESPRLLIKYVSQSISGIPSRFSGSGSGTDFTLSINSVETEDFGMYFCQQSYNWPLTFGAGTKLELK	3 grade (3 => 95% loss of binding vs wild type)	no binding (tested: 3 µg/ml)
antibody 34 (antibody, V domains shown, Mouse IgG, kappa light chain; also called clone #34; m34) VH: QVTLKESGPGILQPSQTLSLTCSFSGFSLSTFSLGVGWIRQSSGKGLEWLAHIWWDDEKYYNPALKSRLTISKDTSKNQVFLKIANVDAADTATYYCARAYYSKSYYALDYWGQGTSVTVSS VL: DIQMTQSPSSLSASLGERVSLTCRASQEISGYLSWLQQKPDGTIKRLIYAASTLDSGVPKRFSGSRSGSDYSLAISSLESEDFADYYCLQYANFPFTFGSGTKLEIK	3 grade (3 => 95% loss of binding vs wild type)	no binding (tested: 3 µg/ml)
antibody 50 (antibody, V domains shown, Mouse IgG, kappa light chain; also called clone #50; purified antibody 50) VH: QVQLQQSGAELVRPGASVKVSCKASGYAFSNYLIEWVKQRPGQGLEWIGVINPGSGFTKYNEKFKGKATLTADKSSSTAYMQLSSLTSEDSAVYFCARGLYRAMDYWGQGTSVTVSS VL: DIQMTQSPASQSASLGESVTITCLASQTIGTWLAWYQQKPGKSPQLLIYAAASLADGVPSRFSGGGSGTKFSFKISSLQAEDFVNYYCQQIYSTPYTFGGGTKLEIK	3 grade (3 => 95% loss of binding vs wild type)	
